{
  "source": "patent US20160319361",
  "about": "“OLIGONUCLEOTIDE PROBES AND USES THEREOF” (CARIS LIFE SCIENCES SWITZERLAND HOLDINGS GMBH, published 2016)",
  "binders": {"B1": {"name": "BTX176881 (ssDNA)", "DNA": "CCCGATTTTGGTACCGCGGGGATCCGCGTCTG"}},
  "molecular_target": "T1, EpCAM (UniProt P16422 P16422:24-265)",
  "T1 sequence": "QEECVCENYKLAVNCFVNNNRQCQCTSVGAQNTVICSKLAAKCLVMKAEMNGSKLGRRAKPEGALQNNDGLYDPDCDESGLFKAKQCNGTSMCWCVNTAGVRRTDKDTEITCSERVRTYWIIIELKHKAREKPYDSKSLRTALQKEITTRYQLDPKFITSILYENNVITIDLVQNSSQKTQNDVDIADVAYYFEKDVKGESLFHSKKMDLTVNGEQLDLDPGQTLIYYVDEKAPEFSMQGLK",
  "assay": "SPR; immobilized biotinylated aptamer, EpCAM analyte; HBS-EP+ buffer",
  "details": "label: biotin via tail",
  "procedure": "FIG. 5 illustrates results from a binding assay showing the binding affinity of an exemplary aptamer (Aptamer ID BTX176881 (SEQ ID NO: 3)) to the target EpCAM protein at various target concentrations. The aptamer to be tested is fixed to a substrate using a biotin tail and is incubated with various concentrations of target (125, 250 and 500 nM). The test is performed on a surface plasmon resonance machine (SPR). The SPR machine detects association and disassociation of the aptamer and the target. Target is applied until the association and disassociation events are equal, resulting in a plateau of the curve. The equations describing the curve at each concentration can then be used to calculate the KD of the aptamer (see Table 5).\nThe Biacore 200 control software is programmed with the following conditions: Solution: HBS-EP+ Buffer; Number of cycles: 3; Contact time: 120s; Flow rate: 30 μl/min; Dissociation time: 300s; Solution: Glycine-HCl pH 2.5; Contact time: 120s; Flow rate: 20 μl/min; Stabilization period: 0s. The binding affinities of these aptamers are then measured using the SPR assay above, or an alternate in vitro assay assessing the aptamer for a desired function.",
  "data": [
    {"binder": "B1", "values": [
      {"measurement": "Kd", "value": 8.4, "unit": "nM"}
    ]}
  ]
}
